This note sets out measurements from patent US20200101171A1.

The target in this test is IGF-1 receptor (UniProt P08069). Description: SPA competition by the method of Experimental Example 1; text: relative to human native IGF-1; curve did not reach saturation at the highest concentration.
Chain of UniProt P08069 (P08069 31-1367 limits assumed): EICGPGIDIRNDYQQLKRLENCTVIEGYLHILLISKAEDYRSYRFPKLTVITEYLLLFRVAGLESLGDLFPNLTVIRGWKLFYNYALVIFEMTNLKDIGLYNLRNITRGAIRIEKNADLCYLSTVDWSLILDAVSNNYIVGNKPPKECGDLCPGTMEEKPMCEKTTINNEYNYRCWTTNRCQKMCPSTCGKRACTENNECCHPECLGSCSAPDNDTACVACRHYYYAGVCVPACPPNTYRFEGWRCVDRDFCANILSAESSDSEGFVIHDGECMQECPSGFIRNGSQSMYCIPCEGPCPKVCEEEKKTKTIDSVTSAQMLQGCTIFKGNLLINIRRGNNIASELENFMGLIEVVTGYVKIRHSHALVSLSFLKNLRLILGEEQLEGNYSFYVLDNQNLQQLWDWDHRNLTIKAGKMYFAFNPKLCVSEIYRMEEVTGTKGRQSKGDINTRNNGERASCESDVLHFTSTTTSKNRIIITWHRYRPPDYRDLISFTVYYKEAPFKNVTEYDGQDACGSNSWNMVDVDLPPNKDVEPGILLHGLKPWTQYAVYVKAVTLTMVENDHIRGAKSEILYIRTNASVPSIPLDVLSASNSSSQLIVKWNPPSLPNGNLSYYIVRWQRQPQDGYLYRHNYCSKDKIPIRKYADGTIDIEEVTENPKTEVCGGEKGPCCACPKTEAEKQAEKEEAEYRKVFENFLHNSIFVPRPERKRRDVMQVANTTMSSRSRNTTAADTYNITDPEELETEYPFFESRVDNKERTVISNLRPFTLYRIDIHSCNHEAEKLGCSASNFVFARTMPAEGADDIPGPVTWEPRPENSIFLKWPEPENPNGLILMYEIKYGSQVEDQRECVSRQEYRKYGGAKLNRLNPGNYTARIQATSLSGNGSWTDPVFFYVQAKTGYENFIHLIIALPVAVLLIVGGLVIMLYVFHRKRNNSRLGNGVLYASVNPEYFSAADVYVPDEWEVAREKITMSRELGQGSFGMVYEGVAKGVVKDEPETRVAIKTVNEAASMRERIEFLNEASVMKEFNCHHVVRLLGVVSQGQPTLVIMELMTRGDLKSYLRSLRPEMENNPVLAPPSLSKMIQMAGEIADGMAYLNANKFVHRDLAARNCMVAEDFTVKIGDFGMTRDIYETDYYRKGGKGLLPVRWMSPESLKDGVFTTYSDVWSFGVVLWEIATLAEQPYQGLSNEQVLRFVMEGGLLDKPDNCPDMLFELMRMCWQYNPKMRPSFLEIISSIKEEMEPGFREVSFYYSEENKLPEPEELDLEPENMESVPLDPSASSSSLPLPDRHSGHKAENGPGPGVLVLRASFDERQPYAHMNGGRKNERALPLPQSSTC

Chain of native insulin-3.4K PEG-immunoglobulin Fc conjugate (chain): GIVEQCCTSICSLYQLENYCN
Chain of native insulin-3.4K PEG-immunoglobulin Fc conjugate (chain): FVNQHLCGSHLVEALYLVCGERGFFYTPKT

“native insulin-3.4K PEG-immunoglobulin Fc conjugate”: the Receptor binding affinity (%, SPA method), IGF-1R was below 1%.
